{
  "source": "paper PMC2409454",
  "origin": "cited, not measured here",
  "biological_target": "pRb (Homo sapiens) (UniProt P06400)",
  "sequence (P06400 2-928)": "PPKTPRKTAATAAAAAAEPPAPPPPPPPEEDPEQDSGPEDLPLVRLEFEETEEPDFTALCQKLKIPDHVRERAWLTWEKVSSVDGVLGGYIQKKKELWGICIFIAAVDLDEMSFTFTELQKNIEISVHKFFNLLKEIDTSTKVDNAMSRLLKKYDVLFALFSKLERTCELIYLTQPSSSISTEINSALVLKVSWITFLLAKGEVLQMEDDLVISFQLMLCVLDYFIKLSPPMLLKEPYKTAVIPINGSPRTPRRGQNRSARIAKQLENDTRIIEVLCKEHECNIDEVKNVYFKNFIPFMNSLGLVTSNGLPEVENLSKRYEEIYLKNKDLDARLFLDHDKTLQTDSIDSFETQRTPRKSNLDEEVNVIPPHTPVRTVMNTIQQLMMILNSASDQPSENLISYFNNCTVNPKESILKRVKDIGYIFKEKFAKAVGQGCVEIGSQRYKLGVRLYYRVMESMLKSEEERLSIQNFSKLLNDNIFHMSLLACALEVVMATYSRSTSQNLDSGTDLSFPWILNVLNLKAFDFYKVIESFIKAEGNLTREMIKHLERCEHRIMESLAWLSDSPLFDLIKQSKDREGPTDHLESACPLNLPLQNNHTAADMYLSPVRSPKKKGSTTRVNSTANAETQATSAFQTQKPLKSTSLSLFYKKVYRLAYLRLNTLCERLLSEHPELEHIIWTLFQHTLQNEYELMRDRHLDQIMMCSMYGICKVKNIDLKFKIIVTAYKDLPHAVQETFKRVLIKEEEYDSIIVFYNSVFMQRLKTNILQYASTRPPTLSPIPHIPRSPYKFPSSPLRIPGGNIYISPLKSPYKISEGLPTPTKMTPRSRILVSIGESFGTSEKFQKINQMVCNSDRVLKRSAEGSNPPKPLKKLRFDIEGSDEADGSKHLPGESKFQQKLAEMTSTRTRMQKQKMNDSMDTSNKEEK",
  "note": "pKd: −log10 of the molar value.",
  "data": [
    {"substance": "E7 (from UniProt P03129)", "values": [
      {"measurement": "pKd", "result": 8.35}
    ]}
  ]
}
